According to paper PMC5331220, “Oxidation of F-actin controls the terminal steps of cytokinesis” (Nature Communications, 2017):
Numbering of substitutions follows the chain as printed. Names and notes keep the numbering of the source. Values joined by “and” are separate entries in the source; they are usually repeats but may differ in a detail not shown here. Equal entries are not always repeated.

T1: MICAL1^879-1067 wild-type (human, UniProt Q8TDZ2 879-1067)
T1 construct: source: E. coli BL21-CodonPlus-RILP or BL21-Gold, purified (HisTrap, rTEV cleavage, Superdex-75); not shown: His6, N-terminal, cleaved
T1 sequence (looked up): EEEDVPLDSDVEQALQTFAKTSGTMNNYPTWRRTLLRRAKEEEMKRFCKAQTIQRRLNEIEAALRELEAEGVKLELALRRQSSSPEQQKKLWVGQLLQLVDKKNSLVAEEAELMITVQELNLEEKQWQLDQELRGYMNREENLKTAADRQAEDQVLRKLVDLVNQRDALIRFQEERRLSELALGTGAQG

T2: His-tagged MICAL1^FAD-CH-LIM (MICAL1^1–843) (human, UniProt Q8TDZ2 1-843)
T2 construct: MICAL1, human, amino acids 1-843 (monooxygenase/FAD, CH and LIM domains); also called 6xHis-MICAL1^FAD-CH-LIM; source: E. coli BL21-AI, purified (Ni-NTA magnetic agarose beads)
T2 sequence (looked up): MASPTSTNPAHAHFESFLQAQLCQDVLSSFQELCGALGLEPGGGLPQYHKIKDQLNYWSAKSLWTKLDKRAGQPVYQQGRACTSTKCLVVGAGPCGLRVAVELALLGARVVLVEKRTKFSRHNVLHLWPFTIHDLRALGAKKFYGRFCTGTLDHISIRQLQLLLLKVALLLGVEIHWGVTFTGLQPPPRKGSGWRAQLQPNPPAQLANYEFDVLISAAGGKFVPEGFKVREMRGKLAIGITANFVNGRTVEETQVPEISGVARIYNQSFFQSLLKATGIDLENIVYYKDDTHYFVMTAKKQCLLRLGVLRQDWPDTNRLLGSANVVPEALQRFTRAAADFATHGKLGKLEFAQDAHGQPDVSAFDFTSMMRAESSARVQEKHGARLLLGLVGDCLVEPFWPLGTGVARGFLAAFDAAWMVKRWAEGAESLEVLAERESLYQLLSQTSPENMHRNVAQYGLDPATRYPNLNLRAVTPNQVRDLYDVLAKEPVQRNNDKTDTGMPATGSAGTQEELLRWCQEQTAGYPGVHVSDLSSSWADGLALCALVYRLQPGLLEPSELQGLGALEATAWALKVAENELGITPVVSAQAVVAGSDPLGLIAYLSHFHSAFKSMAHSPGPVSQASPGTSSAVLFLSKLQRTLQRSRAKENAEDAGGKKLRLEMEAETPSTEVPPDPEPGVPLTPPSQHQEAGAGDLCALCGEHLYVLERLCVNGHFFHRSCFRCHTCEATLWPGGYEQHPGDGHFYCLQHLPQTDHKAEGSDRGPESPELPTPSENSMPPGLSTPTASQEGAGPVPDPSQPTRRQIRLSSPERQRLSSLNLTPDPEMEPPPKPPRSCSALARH

B1: MICAL1^918-1067 wild-type (C-terminal domain of human MICAL1) (domain or fragment, UniProt Q8TDZ2 918-1067, looked up)
chain: KEEEMKRFCKAQTIQRRLNEIEAALRELEAEGVKLELALRRQSSSPEQQKKLWVGQLLQLVDKKNSLVAEEAELMITVQELNLEEKQWQLDQELRGYMNREENLKTAADRQAEDQVLRKLVDLVNQRDALIRFQEERRLSELALGTGAQG
notes: also called C-term MICAL1; source: E. coli BL21-CodonPlus-RILP or BL21-Gold, purified (HisTrap, rTEV cleavage, Superdex-75); not shown: His6, N-terminal, cleaved
B2: MICAL1^918-1067 S1 mutant (E946K, V950D, E953K, V971E, L975R, V978E) (domain or fragment, human, UniProt Q8TDZ2 918-1067, looked up)
chain: B1 chain with E29K, V33D, E36K, V54E, L58R, V61E
notes: the supplement and the results print V978E; source: E. coli BL21-CodonPlus-RILP or BL21-Gold, purified (HisTrap, rTEV cleavage, Superdex-75); not shown: His6, N-terminal, cleaved
B3: Rab35^1-175 (domain or fragment)
chain: not shown
notes: Rab35 GTPase, human, residues 1-175 (lacks the last 26 aa); Loaded with GppNHp (assay a1) or with GDP (assay a2); also called GppNHp-Rab35 1-175; GDP-Rab35 1-175; source: E. coli BL21-CodonPlus-RILP or BL21-Gold, purified (HisTrap, rTEV cleavage, Superdex-75); not shown: His6, N-terminal, cleaved
B4: Rab35^1-199 (domain or fragment)
chain: not shown
notes: Rab35 GTPase, human, residues 1-199; Loaded with GppNHp; also called GppNHp-Rab35 1-199; source: E. coli BL21-CodonPlus-RILP or BL21-Gold, purified (HisTrap, rTEV cleavage, Superdex-75); not shown: His6, N-terminal, cleaved
B5: GST-tagged MICAL1^879–1067 (domain or fragment, human, UniProt Q8TDZ2 879-1067, looked up)
chain: T1 sequence (looked up)
notes: source: E. coli BL21-AI, purified (glutathione Sepharose 4B)

Tests used:
Settings in all cases: both partners purified
Rab35^1-175 = molecular target: B3; assay: ITC; MicroCal ITC-200, 10 °C; C-terminal MICAL1 domain 60 μM in the cell, GppNHp-Rab35 480 μM added in 2 μl aliquots; 50 mM Tris pH 8, 150 mM NaCl, 2 mM MgCl2, 2 mM TCEP, 5% glycerol; one-site model
Rab35^1-199 = molecular target: B4; assay: as above
[1] = molecular target: B1; assay: as above
[2] = molecular target: T1, MICAL1^879-1067 wild-type; assay: as above
[3] = molecular target: B2; assay: as above
[4] = molecular target: T2, His-tagged MICAL1^FAD-CH-LIM …; assay: pull-down; GST-MICAL1^879–1067 on glutathione Sepharose 4B beads, incubated with 6xHis-MICAL1^FAD-CH-LIM alone or with increasing amounts of Rab35-GppNHp in 50 mM Tris pH 8, 150 mM NaCl, 2 mM MgCl2, 1 mM DTT; anti-6xHis and anti-Rab35 blots

Sequence of Rab35^1-199 (Q15286 1-199): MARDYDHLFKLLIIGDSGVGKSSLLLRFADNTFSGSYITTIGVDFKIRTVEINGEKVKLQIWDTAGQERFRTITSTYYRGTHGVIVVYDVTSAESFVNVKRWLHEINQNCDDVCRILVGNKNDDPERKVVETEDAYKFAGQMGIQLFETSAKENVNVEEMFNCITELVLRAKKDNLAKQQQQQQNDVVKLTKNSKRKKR
Sequence of Rab35^1-175 (Q15286 1-175): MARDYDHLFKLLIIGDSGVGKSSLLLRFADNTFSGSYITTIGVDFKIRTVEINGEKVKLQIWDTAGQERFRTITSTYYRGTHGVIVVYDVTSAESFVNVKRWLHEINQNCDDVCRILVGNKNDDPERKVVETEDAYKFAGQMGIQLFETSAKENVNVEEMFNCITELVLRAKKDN

Binder: B1
Kd (Rab35^1-175): 8.3 µM and 4.5 µM
Kd (Rab35^1-199): 4.5 µM and 5 µM and 4.8 µM

Binder: B2
Kd (Rab35^1-175): 7.9 µM and 6.4 µM and 7.2 µM

Binder: B3
stoichiometry N [1]: 1.09
Kd [2]: 13 µM
stoichiometry N [2]: 0.8
stoichiometry N [3]: 0.95

Binder: B4
stoichiometry N [1]: 1.07

Binder: B5
binding result [4]: binds
